As a reminder, the Kd is the constant that tells how readily two partners part at equilibrium. High values mean lower affinity, low ones higher affinity.

Experimental findings from publication doi:10.64898/2025.12.19.695307 are described below.

For this assay, the target named is R1-32 (human). In words: BLI.

In the case of “SARS-CoV-2 Omicron BA.2.11 RBD (from UniProt P0DTC2 332-527) (domain or fragment)”, the Kd was > 55 nM.
